According to patent US20220323445A1, “REDUCING IMMUNOGENICITY TO PEGLOTICASE” (Horizon Therapeutics Ireland DAC, priority 2020, published 2022):

Test system: serum uric acid (sUA)
Assay: Serum uric acid (sUA) levels and sUA responders, open-label study of pegloticase with MTX (NCT03635957)
Type: in vivo, human
Method: The primary objective is to estimate the response rate during Month 6 (Weeks 20, 22, and 24), as measured by the sustained normalization of serum uric acid (SUA) to <6 mg/dL for at least 80% of the time during Month 6 in subjects receiving KXX with MTX.
The primary efficacy outcome endpoint is the sustained normalization of SUA to <6 mg/dL for at least 80% of the time during month 6 (weeks 20, 22, and 24) in subjects receiving KXX with MTX. This is slightly below the urate solubility threshold and this threshold has been the accepted standard for nearly all modern gout trials. Participants who achieve this endpoint were classified as “responders.” Serum uric acid (SUA) responders may also be defined as participants achieving and maintaining SUA <6 mg/dL for at least 80% of the time during Month 6 (Weeks 20, 22, and 24).
Blood samples may be collected prior to each pegloticase infusion for measurement of SUA levels using the Beckman Coulter AU System Uric Acid procedure. Participants were declared “non-responders” if there were SUA measures >6 mg/dL at 2 consecutive study visits beginning with the week 2 visit. […] If the SUA goal is not maintained before or at the 12-week mark, it was assumed that the participant had developed clinically relevant anti-pegloticase antibody and they received no further infusions. This assumption and subsequent discontinuation of pegloticase was consistent with the protocol of large phase III randomized controlled trials and the product label. A formal stopping rule was 2 occasions of SUA levels of greater than 6 mg/dL.
Clinical Chemistry—Blood samples were collected prior to each pegloticase infusion for measurement of SUA levels (primary efficacy parameter) using the Beckman Coulter AU System Uric Acid procedure. In this procedure uric acid is converted to hydrogen peroxide. Hydrogen peroxide reacts with reagent to produce a chromophore which is read bichromatically at 660/800 nm. The amount of dye formed is proportional to the uric acid concentration in the sample.
Serum samples for measurement of SUA levels were collected at the Screening Visit, the Week −4 Visit (prior to the first dose of MTX), and the Week −2 Visit during the MTX Run-in Period; within 48 hours prior to each pegloticase infusion and after the end of each pegloticase infusion prior to discharge from the site during the Pegloticase+IMM Period; at the non-infusion Week 52/End of Study/Early Termination Visits and at the Post Treatment 3 and 6 Month Follow-up Visits. Additional serum samples for SUA levels were collected at optional non-infusion (Frequent Sampling) Visits at Weeks 1 and 7. […] Subjects with SUA level >6 mg/dL at 2 consecutive visits beginning at Week 2 visit discontinued treatment, completed the End of Pegloticase Infusion Visit procedures within 2 weeks and continued the subject visits according to the protocol (without treatment).
Efficacy analyses were performed using the modified intention-to-treat (mITT) population, defined as all enrolled subjects who received ≥1 dose of pegloticase. The proportion of Month 6 responders was summarized, along with a 95% confidence interval for the proportion. The proportion of Month 3 and overall (Months 3 and 6 combined) responders was analyzed similarly.
A subject was declared a non-responder if the subject had SUA level >6 mg/dL at 2 consecutive study visits beginning with the Week 2 Visit. In addition, a subject who withdraws from study treatment for any reason after the first dose of pegloticase in the KXX+MTX Period and prior to Month 6 (for the primary endpoint) or Month 3 (for the secondary endpoint) was considered a non-responder if SUA values were not collected at the planned time points.
Patients were administered oral MTX (15 mg/week) and folate (1 mg/day) 4 weeks prior to the first pegloticase infusion (Day 1) and throughout the pegloticase treatment period. […]

[1] = Week 44 - Pre-Infusion, mITT, n=3
[2] = Week 46 - Pre-Infusion, Month 6 sUA Responders
[3] = Week 46 - Pre-Infusion, mITT, n=2
[4] = Week 48 - Post-Infusion, Month 6 sUA Responders
[5] = Week 48 - Post-Infusion, mITT, n=3
[6] = Week 48 - Pre-Infusion, Month 6 sUA Responders
[7] = Week 48 - Pre-Infusion, mITT, n=2
[8] = Week 50 - Post-Infusion, Month 6 sUA Responders
[9] = Week 50 - Post-Infusion, mITT, n=3
[10] = Week 50 - Pre-Infusion, Month 6 sUA Responders
[11] = Week 50 - Pre-Infusion, mITT, n=2
[12] = Week 52/ET, Month 6 sUA Responders

B1: pegloticase (protein)
chain: TYKKNDEVEFVRTGYGKDMIKVLHIQRDGKYHSIKEVATTVQLTLSSKKDYLHGDNSDVIPTDTIKNTVNVLAKFKGIKSIETFAVTICEHFLSSFKHVIRAQVYVEEVPWKRFEKNGVKHVHAFIYTPTGTHFCEVEQIRNGPPVIHSGIKDLKVLKTTQSGFEGFIKDQFTTLPEVKDRCFATQVYCKWRYHQGRDVDFEATWDTVRSIVLQKFAGPYDKGEYSPSVQKTLYDIQVLTLGQVPEIEDMEISLPNIHYLNIDMSKMGLINKEEVLLPLDNPYGKITGTVKRKLSSRL
modifications: monomethoxy PEG conjugated; Krystexxa Sequence
notes: covalent conjugate of uricase produced by a genetically modified strain of Escherichia coli and monomethoxypoly (ethylene glycol)
(100%): sUA < 6 mg/dL, % [2] | sUA < 6 mg/dL, % [4] | sUA < 6 mg/dL, % [6] | sUA < 6 mg/dL, % [8] | sUA < 6 mg/dL, % [10] | sUA < 6 mg/dL, % [12]
1.37 (1.848) mg/dL: sUA Observed, Mean (SD) [9]
1.37 mg/dL: sUA Observed, Mean [8]
1.60 (2.252) mg/dL: sUA Observed, Mean (SD) [5]
0.30 (0.000) mg/dL: sUA Observed, Mean (SD) [3] | sUA Observed, Mean (SD) [7] | sUA Observed, Mean (SD) [11] | sUA Observed, Mean (SD) (Week 52/ET, mITT, n=2)
1.60 mg/dL: sUA Observed, Mean [4]
-10.33 mg/dL: sUA Change from Baseline, Mean [4]
−10.55 (4.625) mg/dL: sUA Change from Baseline, Mean (SD) [1]
−10.33 (4.922) mg/dL: sUA Change from Baseline, Mean (SD) [5]
1.05 (1.305) mg/dL: sUA Observed, Mean (SD) [1]
−10.57 (4.598) mg/dL: sUA Change from Baseline, Mean (SD) [9]
−12.65 (4.031) mg/dL: sUA Change from Baseline, Mean (SD) [3] | sUA Change from Baseline, Mean (SD) [7] | sUA Change from Baseline, Mean (SD) [11] | sUA Change from Baseline, Mean (SD) (Week 52/ET, mITT, n=2)
-12.65 mg/dL: sUA Change from Baseline, Mean [2] | sUA Change from Baseline, Median [2] | sUA Change from Baseline, Median [3] | sUA Change from Baseline, Mean [6] | sUA Change from Baseline, Median [6] | sUA Change from Baseline, Median [7] | sUA Change from Baseline, Mean [10] | sUA Change from Baseline, Median [10] | sUA Change from Baseline, Median [11] | sUA Change from Baseline, Mean [12] | sUA Change from Baseline, Median [12] | sUA Change from Baseline, Median (Week 52/ET, mITT, n=2)
-9.80 mg/dL: sUA Change from Baseline, Median [1] | sUA Change from Baseline, Median [4] | sUA Change from Baseline, Median [5] | sUA Change from Baseline, Median [8] | sUA Change from Baseline, Median [9]
0.30 mg/dL: sUA Observed, Median [1] | sUA Observed, Mean [2] | sUA Observed, Median [2] | sUA Observed, Median [3] | sUA Observed, Median [4] | sUA Observed, Median [5] | sUA Observed, Mean [6] | sUA Observed, Median [6] | sUA Observed, Median [7] | sUA Observed, Median [8] | sUA Observed, Median [9] | sUA Observed, Mean [10] | sUA Observed, Median [10] | sUA Observed, Median [11] | sUA Observed, Mean [12] | sUA Observed, Median [12] | sUA Observed, Median (Week 52/ET, mITT, n=2)
3 (100%): sUA < 6 mg/dL, n (%) [1] | sUA < 6 mg/dL, n (%) [5] | sUA < 6 mg/dL, n (%) [9]
-10.57 mg/dL: sUA Change from Baseline, Mean [8]
2 (100%): sUA < 6 mg/dL, n (%) [3] | sUA < 6 mg/dL, n (%) [7] | sUA < 6 mg/dL, n (%) [11] | sUA < 6 mg/dL, n (%) (Week 52/ET, mITT, n=2)
